This note sets out measurements from patent US20210395344A1.

Experiment [1] concerns the target COVID S1 RBD Fc fusion (Antigen 1) (SARS-CoV-2), P0DTC2. Briefly: phage ELISA. To be noted: remark: other sources report otherwise.
Experiment [2] concerns the target SARS-CoV-2 S protein trimer (SARS-CoV-2), P0DTC2. The experiment in a line: column DB/S-T (format not explained). To be noted: remark: other sources report otherwise.

B1: 1-5 (antibody, V domains shown)
VH: EVQLLESGGGLVQPGGSLRLSCAASGFTFSSQAMSWVRQAPGKGLEWVSAISGSGGGTYYADSVKGRFTISRDNSKNTLYLQMNSLRAEDTAVYYCAKDRRFGEFDPWGQGTLVTVSS
VL: QSALTQPASVSGSPGQSITISCTGTSSGVGSYNLVSWYQQHPGKAPKLMIYEASKRPSGVSNRFSGSKSGNTASLTISGLQAEDEADYYCCSYAGSYTFAVFGGGTKLTVL
In experiment [1], B1 gave an ELISA fold over background (fold over background) of 1.6. In addition, in experiment [2], the Kd was 1.16 µM.

One may read the Kd as the constant that tells how readily two partners part at equilibrium. Low values mean tighter binding, high ones weaker binding.
